Measured values from article PMC11530643 (Communications Biology, 2024).
Ends that are not written are not given here. * marks the point of attachment. MTSL = spin label from S-(1-oxyl-2,2,5,5-tetramethyl-2,5-dihydro-1H-pyrrol-3-yl)methyl methanesulfonothioate, attached to the cysteine side chain, CC1(C)C=C(CS*)C(C)(C)N1[O]

Biological target: FOXO4 forkhead domain (FHD; 95–195 a.a.) (human, UniProt P98177 95-195)
Test: NMR paramagnetic relaxation enhancement

Sequence of FOXO4 forkhead domain (FHD; 95–195 a.a.) (P98177 95-195): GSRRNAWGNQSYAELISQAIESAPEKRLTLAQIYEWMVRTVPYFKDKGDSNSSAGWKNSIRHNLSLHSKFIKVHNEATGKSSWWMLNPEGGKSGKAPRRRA

binding result: binds
Binder: DLDLDMYMENLEC(MTSL)DMDNIISDLMDEGEGLDFNFEPDP (domain or fragment, human, UniProt P98177 469-505, looked up) [FOXO4 conserved region 3 (CR3; 469–505 a.a.), MTSL-labelled at C481]
